Assays:
[1] = target: T1, hTfR (human transferrin receptor, source and construct not stated) (human, UniProt P02786 89-760, limits assumed); assay: ELISA; ratio of the Kd on HFE-captured hTfR to the Kd on directly coated hTfR
[2] = target: T1, hTfR (human transferrin receptor, …); assay: ELISA; ratio of the Kd on transferrin-captured hTfR to the Kd on directly coated hTfR
In short: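 Human holo-transferrin coated at 500 ng/mL (4 °C overnight) captured hTfR (200 ng/mL, 30 min); comparison plates carried directly coated hTfR. Biotinylated antibodies, 3-fold series from 20 nM (pre-addition), bound 1 h; streptavidin-HRP/TMB, A450 minus A570. Kd from specific binding with Hill slope; shift judged against reference antibody AF2474 with transferrin-overlapping epitope.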

[3] = target: T1, hTfR (human transferrin receptor, …); assay: SPR (BioRad ProteOn XPR36), average of the three 13E4_WT runs, mAb captured on Protein A, hTfR as analyte, 25 C
Description: The binding kinetics of nine exemplary humanized anti-TfR antibodies and the parent chimeric antibody were characterized. Studies were run on a BioRad ProteOn XPR36 optical biosensor using a GLM sensor chip coated with Protein A for mAb capture. Running buffer included 10 mM EPES, 150 mM NaCl, pH 7.4 with 0.05 tween-20 with 0.2 mg/ml BSA. Data were collected at 25 degrees C. All mAbs were diluted into running buffer to 2 ug/ml based on the stock concentration provided. Each was then captured for 40 seconds over a Protein A surface.
hTfR (100 ug) was dissolved into […] of water to yield a 4.3 uM stock concentration. hTfR was dilted to 43 nM as the highest concentration and tested in a 3 fold dilution series. hTfR was injected at 200 ul/min for 2 minutes followed by a one-hour dissociation phase.

[4] = target: T2, TfR2 (transferrin receptor 2) (UniProt Q9UP52 105-801, limits assumed); assay: A450 plate assay on TfR2 (method not described in the text)
T2 sequence (looked up): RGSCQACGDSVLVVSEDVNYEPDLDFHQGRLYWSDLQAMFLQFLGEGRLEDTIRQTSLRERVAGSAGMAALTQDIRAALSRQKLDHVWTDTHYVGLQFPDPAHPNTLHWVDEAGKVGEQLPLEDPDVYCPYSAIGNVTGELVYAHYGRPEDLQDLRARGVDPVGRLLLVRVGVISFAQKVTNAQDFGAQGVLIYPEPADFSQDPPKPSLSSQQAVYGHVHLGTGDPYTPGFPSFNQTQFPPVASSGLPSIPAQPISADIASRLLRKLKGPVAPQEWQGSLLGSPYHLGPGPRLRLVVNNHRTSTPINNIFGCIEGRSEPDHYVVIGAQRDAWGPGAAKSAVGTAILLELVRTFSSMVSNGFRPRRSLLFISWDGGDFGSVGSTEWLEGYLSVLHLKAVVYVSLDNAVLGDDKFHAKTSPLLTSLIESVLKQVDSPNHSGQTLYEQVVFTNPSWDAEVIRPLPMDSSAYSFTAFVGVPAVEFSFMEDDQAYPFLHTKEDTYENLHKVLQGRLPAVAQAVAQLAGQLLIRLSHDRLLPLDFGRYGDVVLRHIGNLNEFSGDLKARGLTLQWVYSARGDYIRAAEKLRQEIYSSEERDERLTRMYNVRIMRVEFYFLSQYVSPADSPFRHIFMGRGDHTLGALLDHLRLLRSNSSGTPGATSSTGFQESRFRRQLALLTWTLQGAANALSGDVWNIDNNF

[5] = target: T3, recombinant cyno transferrin receptor protein (Sino Biological 90253-C07H) (cyno, UniProt H9EXL1 89-760 (rhesus entry)); assay: ELISA on plate-coated recombinant cyno TfR1 (CD71); fit: specific binding with Hill slope
T3 construct: Bought protein coated on ELISA plates; also called recombinant cyno TfR1; cynoTfR1
In short: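 Plates coated overnight at 4° C with recombinant human or cyno TfR1 (1 ng/μL), blocked, then incubated with samples up to 10 nM for 1 h at room temperature. Bound IgG detected with HRP anti-human Fcγ and TMB (A450 minus A570); Bmax, h and Kd from specific-binding-with-Hill-slope fit.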

T1 sequence (P02786 89-760 limits assumed): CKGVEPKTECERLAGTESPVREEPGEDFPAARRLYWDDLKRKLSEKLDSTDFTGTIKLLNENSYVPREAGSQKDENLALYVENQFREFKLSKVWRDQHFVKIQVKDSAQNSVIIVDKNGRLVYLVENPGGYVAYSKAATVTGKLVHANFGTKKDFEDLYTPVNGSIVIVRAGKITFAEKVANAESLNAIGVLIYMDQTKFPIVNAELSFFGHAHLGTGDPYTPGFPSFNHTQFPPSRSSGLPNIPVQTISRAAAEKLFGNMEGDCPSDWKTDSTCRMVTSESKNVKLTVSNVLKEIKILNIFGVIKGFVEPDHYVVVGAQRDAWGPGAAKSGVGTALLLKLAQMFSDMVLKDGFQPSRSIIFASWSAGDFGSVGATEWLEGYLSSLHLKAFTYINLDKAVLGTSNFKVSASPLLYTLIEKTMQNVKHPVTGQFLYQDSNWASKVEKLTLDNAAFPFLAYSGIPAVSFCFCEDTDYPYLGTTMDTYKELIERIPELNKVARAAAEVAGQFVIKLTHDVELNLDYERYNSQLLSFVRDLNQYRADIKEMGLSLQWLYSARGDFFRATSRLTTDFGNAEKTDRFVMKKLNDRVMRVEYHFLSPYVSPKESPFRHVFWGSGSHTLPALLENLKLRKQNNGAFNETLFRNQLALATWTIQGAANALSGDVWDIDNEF
T3 sequence (chain, as listed by the source C07H C07H): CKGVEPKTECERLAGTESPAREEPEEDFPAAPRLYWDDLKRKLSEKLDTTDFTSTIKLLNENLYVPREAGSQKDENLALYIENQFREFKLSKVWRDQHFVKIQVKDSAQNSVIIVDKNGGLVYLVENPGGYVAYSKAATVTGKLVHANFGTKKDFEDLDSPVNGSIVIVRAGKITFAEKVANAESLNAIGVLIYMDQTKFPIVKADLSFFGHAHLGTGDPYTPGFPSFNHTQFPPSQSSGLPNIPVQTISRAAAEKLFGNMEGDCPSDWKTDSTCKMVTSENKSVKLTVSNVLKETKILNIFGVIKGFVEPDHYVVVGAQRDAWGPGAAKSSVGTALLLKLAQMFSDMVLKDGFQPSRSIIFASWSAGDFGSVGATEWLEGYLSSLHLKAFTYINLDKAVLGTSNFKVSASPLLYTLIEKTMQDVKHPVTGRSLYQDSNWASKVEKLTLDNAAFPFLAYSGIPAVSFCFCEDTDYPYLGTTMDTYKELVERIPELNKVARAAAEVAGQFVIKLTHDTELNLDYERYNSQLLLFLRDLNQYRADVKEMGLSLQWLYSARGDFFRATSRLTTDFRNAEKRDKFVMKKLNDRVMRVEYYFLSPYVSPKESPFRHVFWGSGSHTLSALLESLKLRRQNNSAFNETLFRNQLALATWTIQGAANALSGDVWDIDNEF

B1: 13E4_WT (parent chimeric anti-TfR antibody) (antibody, V domains shown)
VH: QVQLQQPGAELVKPGASVKLSCKASGYTFTNYWMHWVKQRPGQGLEWIGEINPINGRSNYGERFKTKATLTVDKSSSTAYMQLSSLTSEDSAVYYCARGTRAMHYWGQGTSVTVSS
VL: DIQMTQSPASLSVSVGETVTITCRTSENIYNNLAWYQQKQGKSPQLLVYAATNLADGVPSRFSGSGSGTQYSLKINSLQSEDFGNYYCQHFWGTPLTFGAGTKLELK
notes: also called 13E4_WT 1st; 13E4_WT 2nd
- Kd(HFE+TfR)/Kd(TfR) [1]: 16.9
- Kd(Tf+TfR)/Kd(TfR) [2]: 3.1
- Kd [3]: 1.1 pM
- koff [3]: 1e-06 s⁻¹
- binding result [4]: no binding (tested: 1000 nM)
- Bmax [5]: 99.1 % max binding
- Kd [5]: 5.82 pM
- h [5]: 1.34

Source: patent publication US20200325237A1 (AVIDITY BIOSCIENCES, published 2020)
